From patent US20030162229A1
Where no end group is shown, it is not given here. The star is where a group is joined. Biotin = O=C1N[C@H]2[C@H](CS[C@H]2CCCCC(=O)*)N1

B1: human recombinant 30 kDa inhibin A (ligand)
chain 1: STPLMSWPWSPSALRLLQRPPEEPAAHANCHRVALNISFQELGWERWIVYPPSFIFHYCHGGCGLHIPPNLSLPVPGAPPTPAQPYSLLPGAQPCCAALPGTMRPLHVRTTSDGGYSFKYETVPNLLTQHCACI
chain 2: GLECDGKVNICCKKQFFVSFKDIGWNDWIIAPSGYHANYCEGECPSHIAGTSGSSLSFHSTVINHYRMRGHSPFANLKSCCVPTKLRPMSMLYYDDGQNIIKKDIQNMIVEECGCS

Each binder was assayed against antiserum As #128 (sheep polyclonal, raised to the alpha subunit of human inhibin, boosted with human recombinant 30-kDa inhibin) (assay: RIA, iodinated hr-inhibin tracer).

Binder	ED50
H-CSKKGPNLSLPVPGAPPTP [non-biotinylated peptide #20 with NH2-Cys-Ser-Lys-Lys-Gly amino terminal spacer]	150 nM
B1	2 nM

The binders below were run against antiserum As #41 (sheep polyclonal, raised to the alpha subunit of human inhibin) (assay: RIA, iodinated hr-inhibin tracer).

Binder	ED50
H-CSKKGWSPSALRLLQRPPE [non-biotinylated peptide #5 with NH2-Cys-Ser-Lys-Lys-Gly amino terminal spacer]	0.4 nM

What follows are binders tested against rabbit antiserum #1989 (assay: RIA, iodinated hr-inhibin tracer).

Binder	ED50
B1	0.1 nM
H-CSKKGRTTSDGGYSFKYET [non-biotinylated peptide #30 with NH2-Cys-Ser-Lys-Lys-Gly amino terminal spacer]	2500 nM

The binders below were run against antiserum As #128 (sheep polyclonal, raised to the alpha subunit of human inhibin, boosted with human recombinant 30-kDa inhibin) (assay: RIA, competition with iodinated inhibin).

Binder	ED50
Biotin-SGSGDGGYSFKYETVPNL [biotinylated peptide #31 (Set 1) of the human (alpha)C subunit]	1400 nM
Biotin-SGSGHYCHGGCGLHIPPN (cysteine pairing not given here) [biotinylated peptide #17 (Set 1) of the human (alpha)C subunit]	10000 nM
Biotin-SGSGPYSLLPGAQPCCAA (cysteine pairing not given here) [biotinylated peptide #24 (Set 1) of the human (alpha)C subunit]	900 nM
Biotin-SGSGETVPNLLTQHCACI (cysteine pairing not given here) [biotinylated peptide #33 (Set 1) of the human (alpha)C subunit]	2500 nM
Biotin-SGSGLPVPGAPPTPAQPY [biotinylated peptide #21 (Set 1) of the human (alpha)C subunit]	156 nM
Biotin-SGSGPEEPAAHANCHRVA [biotinylated peptide #8 (Set 1) of the human (alpha)C subunit]	4800 nM
Biotin-SGSGPNLSLPVPGAPPTP [biotinylated peptide #20 (Set 1) of the human (alpha)C subunit]	20 nM
Biotin-SGSGMSWPWSPSALRLLQ [biotinylated peptide #4 (Set 1) of the human (alpha)C subunit]	3800 nM
Biotin-SGSGTPAQPYSLLPGAQP [biotinylated peptide #23 (Set 1) of the human (alpha)C subunit]	500 nM
Biotin-SGSGQPCCAALPGTMRPL (cysteine pairing not given here) [biotinylated peptide #26 (Set 1) of the human (alpha)C subunit]	625 nM
Biotin-SGSGSFKYETVPNLLTQH [biotinylated peptide #32 (Set 1) of the human (alpha)C subunit]	2500 nM
Biotin-SGSGSTPLMSWPWSPSAL [biotinylated peptide #3 (Set 1) of the human (alpha)C subunit]	38000 nM
Biotin-SGSGALRLLQRPPEEPAA [biotinylated peptide #6 (Set 1) of the human (alpha)C subunit]	1800 nM
Biotin-SGSGLPGAQPCCAALPGT (cysteine pairing not given here) [biotinylated peptide #25 (Set 1) of the human (alpha)C subunit]	2000 nM

Each binder was assayed against antiserum As #41 (sheep polyclonal, raised to the alpha subunit of human inhibin) (assay: RIA, competition with iodinated inhibin).

Binder	ED50
Biotin-SGSGDGGYSFKYETVPNL [biotinylated peptide #31 (Set 1) of the human (alpha)C subunit]	2400 nM
Biotin-SGSGHYCHGGCGLHIPPN (cysteine pairing not given here) [biotinylated peptide #17 (Set 1) of the human (alpha)C subunit]	1050 nM
Biotin-SGSGPYSLLPGAQPCCAA (cysteine pairing not given here) [biotinylated peptide #24 (Set 1) of the human (alpha)C subunit]	6200 nM
Biotin-SGSGETVPNLLTQHCACI (cysteine pairing not given here) [biotinylated peptide #33 (Set 1) of the human (alpha)C subunit]	4000 nM
Biotin-SGSGLPVPGAPPTPAQPY [biotinylated peptide #21 (Set 1) of the human (alpha)C subunit]	1000 nM
Biotin-SGSGPNLSLPVPGAPPTP [biotinylated peptide #20 (Set 1) of the human (alpha)C subunit]	3600 nM
Biotin-SGSGMSWPWSPSALRLLQ [biotinylated peptide #4 (Set 1) of the human (alpha)C subunit]	1300 nM
Biotin-SGSGTPAQPYSLLPGAQP [biotinylated peptide #23 (Set 1) of the human (alpha)C subunit]	6200 nM
Biotin-SGSGQPCCAALPGTMRPL (cysteine pairing not given here) [biotinylated peptide #26 (Set 1) of the human (alpha)C subunit]	1000 nM
Biotin-SGSGSFKYETVPNLLTQH [biotinylated peptide #32 (Set 1) of the human (alpha)C subunit]	290 nM
Biotin-SGSGALRLLQRPPEEPAA [biotinylated peptide #6 (Set 1) of the human (alpha)C subunit]	26 nM
Biotin-SGSGLPGAQPCCAALPGT (cysteine pairing not given here) [biotinylated peptide #25 (Set 1) of the human (alpha)C subunit]	5000 nM

Each binder was assayed against rabbit antiserum #1989 (assay: RIA, competition with iodinated inhibin).

Binder	ED50
Biotin-SGSGDGGYSFKYETVPNL [biotinylated peptide #31 (Set 1) of the human (alpha)C subunit]	> 2500 nM
Biotin-SGSGHYCHGGCGLHIPPN (cysteine pairing not given here) [biotinylated peptide #17 (Set 1) of the human (alpha)C subunit]	> 2500 nM
Biotin-SGSGPYSLLPGAQPCCAA (cysteine pairing not given here) [biotinylated peptide #24 (Set 1) of the human (alpha)C subunit]	> 2500 nM
Biotin-SGSGETVPNLLTQHCACI (cysteine pairing not given here) [biotinylated peptide #33 (Set 1) of the human (alpha)C subunit]	> 2500 nM
Biotin-SGSGLPVPGAPPTPAQPY [biotinylated peptide #21 (Set 1) of the human (alpha)C subunit]	> 2500 nM
Biotin-SGSGPEEPAAHANCHRVA [biotinylated peptide #8 (Set 1) of the human (alpha)C subunit]	> 2500 nM
Biotin-SGSGPNLSLPVPGAPPTP [biotinylated peptide #20 (Set 1) of the human (alpha)C subunit]	> 2500 nM
Biotin-SGSGMSWPWSPSALRLLQ [biotinylated peptide #4 (Set 1) of the human (alpha)C subunit]	> 2500 nM
Biotin-SGSGTPAQPYSLLPGAQP [biotinylated peptide #23 (Set 1) of the human (alpha)C subunit]	> 2500 nM
Biotin-SGSGQPCCAALPGTMRPL (cysteine pairing not given here) [biotinylated peptide #26 (Set 1) of the human (alpha)C subunit]	> 2500 nM
Biotin-SGSGSFKYETVPNLLTQH [biotinylated peptide #32 (Set 1) of the human (alpha)C subunit]	> 2500 nM
Biotin-SGSGSTPLMSWPWSPSAL [biotinylated peptide #3 (Set 1) of the human (alpha)C subunit]	> 2500 nM
Biotin-SGSGALRLLQRPPEEPAA [biotinylated peptide #6 (Set 1) of the human (alpha)C subunit]	> 2500 nM
Biotin-SGSGLPGAQPCCAALPGT (cysteine pairing not given here) [biotinylated peptide #25 (Set 1) of the human (alpha)C subunit]	> 2500 nM

The binders below were run against antibody pair of the (alpha)C IFMA: As #128 as coating antibody and As #41 as label (assay: inhibin IFMA; #5 on As #128 and #5 on As #41).

Binder	% suppression at 2ng inhibin
H-CSKKGWSPSALRLLQRPPE [non-biotinylated peptide #5 with NH2-Cys-Ser-Lys-Lys-Gly amino terminal spacer]	73%

What follows are binders tested against antiserum As #128 (sheep polyclonal, raised to the alpha subunit of human inhibin, boosted with human recombinant 30-kDa inhibin) (assay: inhibin IFMA; #5 on As #128, buffer on As #41).

Binder	% suppression at 2ng inhibin
H-CSKKGWSPSALRLLQRPPE [non-biotinylated peptide #5 with NH2-Cys-Ser-Lys-Lys-Gly amino terminal spacer]	55%

Each binder was assayed against antiserum As #41 (sheep polyclonal, raised to the alpha subunit of human inhibin) (assay: inhibin IFMA; buffer on As #128, #5 on As #41).

Binder	% suppression at 2ng inhibin
H-CSKKGWSPSALRLLQRPPE [non-biotinylated peptide #5 with NH2-Cys-Ser-Lys-Lys-Gly amino terminal spacer]	67%

Each binder was assayed against antiserum As #128 (sheep polyclonal, raised to the alpha subunit of human inhibin, boosted with human recombinant 30-kDa inhibin) (assay: inhibin IFMA; #20 on As #128, buffer on As #41).

Binder	% suppression at 2ng inhibin
H-CSKKGPNLSLPVPGAPPTP [non-biotinylated peptide #20 with NH2-Cys-Ser-Lys-Lys-Gly amino terminal spacer]	13%

Each binder was assayed against antiserum As #41 (sheep polyclonal, raised to the alpha subunit of human inhibin) (assay: inhibin IFMA; buffer on As #128, #30 on As #41).

Binder	% suppression at 2ng inhibin
H-CSKKGRTTSDGGYSFKYET [non-biotinylated peptide #30 with NH2-Cys-Ser-Lys-Lys-Gly amino terminal spacer]	28%

These binders were tested against antiserum As #41 (sheep polyclonal, raised to the alpha subunit of human inhibin) (assay: two-site assay, biotinylated As #41 pre-incubated with peptide, inhibin on As #128 plate).

Binder	% inhibition
H-CSKKGWSPSALRLLQRPPE [non-biotinylated peptide #5 with NH2-Cys-Ser-Lys-Lys-Gly amino terminal spacer]	50%

These binders were tested against antiserum As #128 (sheep polyclonal, raised to the alpha subunit of human inhibin, boosted with human recombinant 30-kDa inhibin) (assay: two-site assay, peptide pre-incubated on As #128 coated plate, then hr-inhibin, biotinylated As #41).

Binder	% suppression in binding
H-CSKKGPNLSLPVPGAPPTP [non-biotinylated peptide #20 with NH2-Cys-Ser-Lys-Lys-Gly amino terminal spacer]	23%
H-CSKKGWSPSALRLLQRPPE [non-biotinylated peptide #5 with NH2-Cys-Ser-Lys-Lys-Gly amino terminal spacer]	65%
